Data published in publication PMC10127692, “SARS-CoV-2 SUD2 and Nsp5 Conspire to Boost Apoptosis of Respiratory Epithelial Cells via an Augmented Interaction with the G-Quadruplex of BclII”.

What was measured:
[1] = target: T1, SUD2core (SUD2-N+M of Nsp3) (SARS-CoV-2, UniProt P0DTC1 1230-1493); assay: BLI; 100 mM K+; settings: protein: recombinant; tags: His; label: 5'-biotin (BLI, pulldown); Cy5 (EMSA); G4, folded in 100 mM K+
[2] = target: SUD2core (SUD2-N+M of Nsp3);Nsp5 (SARS-CoV-2;SARS-CoV-2, UniProt P0DTC1;P0DTC1 1230-1493;3264-3569, |); assay: pull-down; 100 mM K+; Nsp5 added; settings: protein: recombinant;recombinant; tags: His;GST; label: 5'-biotin (BLI, pulldown); Cy5 (EMSA); G4, folded in 100 mM K+
[3] = target: T1, SUD2core (SUD2-N+M of Nsp3); assay: pull-down; 100 mM K+; positive control; settings: protein: recombinant; tags: His; label: 5'-biotin; G4

In the case of GGGCGCGGGAGGAATTGGGCGGG (structured_DNA) [Bcl2G4WT (G4 folded)], the Kd [1] is reported as 85 nM and the binding signal [2] is reported as 6.3 fold SUD2core retained vs without Nsp5.

TTGAGGGTGGGTAGGGTGGGTAA (structured_DNA) [MYCG4]: binds [3].
